Assay results from the Human Domainome abundance scans (Beltran et al. 2025).
± gives the uncertainty stated by the source.

B1: SAM and SH3 domain-containing protein 1, residues 630 to 700; numbered along this chain, O94885 (parent)
chain: GRPPQPKSVEDLLDRINLKEHMPTFLFNGYEDLDTFKLLEEEDLDELNIRDPEHRAVLLTAVELLQEYDSN

Variants of: B1
Assay: abundance fitness (aPCA) (normalised: wild type 0, dead -1); higher = more abundant; growth selection in yeast, the domain comes from the species named
Details: Homo sapiens
Variant GRPPQPKSVEDLLDRINLKTHMPTFLFNGYEDLDTFKLLEEEDLDELNIRDPEHRAVLLTAVELLQEYDSN [E20T] has an abundance fitness of -0.48 ± 0.065. Work on GRPPQPKSVEDLLDRINLKDHMPTFLFNGYEDLDTFKLLEEEDLDELNIRDPEHRAVLLTAVELLQEYDSN [E20D] yielded an abundance fitness of -0.498 ± 0.11. Work on GRPPQPKSVEDLLDRINLKIHMPTFLFNGYEDLDTFKLLEEEDLDELNIRDPEHRAVLLTAVELLQEYDSN [E20I] yielded an abundance fitness of -0.244 ± 0.061. In the case of GRPPQPKSVEDLLDRINLKCHMPTFLFNGYEDLDTFKLLEEEDLDELNIRDPEHRAVLLTAVELLQEYDSN [E20C], the abundance fitness is reported as -0.124 ± 0.063. With GRPPQPKSVEDLLDRINLKWHMPTFLFNGYEDLDTFKLLEEEDLDELNIRDPEHRAVLLTAVELLQEYDSN [E20W] the abundance fitness was -0.879 ± 0.13. In the case of GRPPQPKSVEDLLDRINLKFHMPTFLFNGYEDLDTFKLLEEEDLDELNIRDPEHRAVLLTAVELLQEYDSN [E20F], the abundance fitness is reported as -0.502 ± 0.071. For GRPPQPKSVEDLLDRINLKLHMPTFLFNGYEDLDTFKLLEEEDLDELNIRDPEHRAVLLTAVELLQEYDSN [E20L], the abundance fitness was -0.559 ± 0.063. Work on GRPPQPKSVEDLLDRINLKVHMPTFLFNGYEDLDTFKLLEEEDLDELNIRDPEHRAVLLTAVELLQEYDSN [E20V] yielded an abundance fitness of -0.203 ± 0.054. Work on GRPPQPKSVEDLLDRINLKNHMPTFLFNGYEDLDTFKLLEEEDLDELNIRDPEHRAVLLTAVELLQEYDSN [E20N] yielded an abundance fitness of -0.455 ± 0.084. GRPPQPKSVEDLLDRINLKSHMPTFLFNGYEDLDTFKLLEEEDLDELNIRDPEHRAVLLTAVELLQEYDSN [E20S] gave an abundance fitness of -0.332 ± 0.053. For GRPPQPKSVEDLLDRINLKKHMPTFLFNGYEDLDTFKLLEEEDLDELNIRDPEHRAVLLTAVELLQEYDSN [E20K], the abundance fitness was -0.755 ± 0.11. Work on GRPPQPKSVEDLLDRINLKHHMPTFLFNGYEDLDTFKLLEEEDLDELNIRDPEHRAVLLTAVELLQEYDSN [E20H] yielded an abundance fitness of -0.484 ± 0.074. In the case of GRPPQPKSVEDLLDRINLKYHMPTFLFNGYEDLDTFKLLEEEDLDELNIRDPEHRAVLLTAVELLQEYDSN [E20Y], the abundance fitness is reported as -0.84 ± 0.1. Variant GRPPQPKSVEDLLDRINLKGHMPTFLFNGYEDLDTFKLLEEEDLDELNIRDPEHRAVLLTAVELLQEYDSN [E20G] has an abundance fitness of -0.673 ± 0.094. In the case of GRPPQPKSVEDLLDRINLKRHMPTFLFNGYEDLDTFKLLEEEDLDELNIRDPEHRAVLLTAVELLQEYDSN [E20R], the abundance fitness is reported as -0.596 ± 0.064. Work on GRPPQPKSVEDLLDRINLKMHMPTFLFNGYEDLDTFKLLEEEDLDELNIRDPEHRAVLLTAVELLQEYDSN [E20M] yielded an abundance fitness of -0.212 ± 0.064. Variant GRPPQPKSVEDLLDRINLKAHMPTFLFNGYEDLDTFKLLEEEDLDELNIRDPEHRAVLLTAVELLQEYDSN [E20A] has an abundance fitness of -0.699 ± 0.084. For GRPPQPKSVEDLLDRINLHEHMPTFLFNGYEDLDTFKLLEEEDLDELNIRDPEHRAVLLTAVELLQEYDSN [K19H], the abundance fitness was -0.262 ± 0.05. GRPPQPKSVEDLLDRINLPEHMPTFLFNGYEDLDTFKLLEEEDLDELNIRDPEHRAVLLTAVELLQEYDSN [K19P] gave an abundance fitness of -0.279 ± 0.043. Work on GRPPQPKSVEDLLDRINLIEHMPTFLFNGYEDLDTFKLLEEEDLDELNIRDPEHRAVLLTAVELLQEYDSN [K19I] yielded an abundance fitness of -0.073 ± 0.042. Work on GRPPQPKSVEDLLDRINLQEHMPTFLFNGYEDLDTFKLLEEEDLDELNIRDPEHRAVLLTAVELLQEYDSN [K19Q] yielded an abundance fitness of 0.002 ± 0.044. For GRPPQPKSVEDLLDRINLREHMPTFLFNGYEDLDTFKLLEEEDLDELNIRDPEHRAVLLTAVELLQEYDSN [K19R], the abundance fitness was -0.032 ± 0.035. Variant GRPPQPKSVEDLLDRINLWEHMPTFLFNGYEDLDTFKLLEEEDLDELNIRDPEHRAVLLTAVELLQEYDSN [K19W] has an abundance fitness of -0.607 ± 0.072. Variant GRPPQPKSVEDLLDRINLYEHMPTFLFNGYEDLDTFKLLEEEDLDELNIRDPEHRAVLLTAVELLQEYDSN [K19Y] has an abundance fitness of -0.532 ± 0.06. Variant GRPPQPKSVEDLLDRINLEEHMPTFLFNGYEDLDTFKLLEEEDLDELNIRDPEHRAVLLTAVELLQEYDSN [K19E] has an abundance fitness of -0.434 ± 0.073. GRPPQPKSVEDLLDRINLAEHMPTFLFNGYEDLDTFKLLEEEDLDELNIRDPEHRAVLLTAVELLQEYDSN [K19A] gave an abundance fitness of -0.055 ± 0.039. In the case of GRPPQPKSVEDLLDRINLSEHMPTFLFNGYEDLDTFKLLEEEDLDELNIRDPEHRAVLLTAVELLQEYDSN [K19S], the abundance fitness is reported as 0.085 ± 0.033. Variant GRPPQPKSVEDLLDRINLGEHMPTFLFNGYEDLDTFKLLEEEDLDELNIRDPEHRAVLLTAVELLQEYDSN [K19G] has an abundance fitness of -0.236 ± 0.051. For GRPPQPKSVEDLLDRINLTEHMPTFLFNGYEDLDTFKLLEEEDLDELNIRDPEHRAVLLTAVELLQEYDSN [K19T], the abundance fitness was 0.042 ± 0.036. With GRPPQPKSVEDLLDRINLCEHMPTFLFNGYEDLDTFKLLEEEDLDELNIRDPEHRAVLLTAVELLQEYDSN [K19C] the abundance fitness was -0.419 ± 0.056. GRPPQPKSVEDLLDRINLFEHMPTFLFNGYEDLDTFKLLEEEDLDELNIRDPEHRAVLLTAVELLQEYDSN [K19F] showed an abundance fitness of -0.654 ± 0.061. Work on GRPPQPKSVEDLLDRINLLEHMPTFLFNGYEDLDTFKLLEEEDLDELNIRDPEHRAVLLTAVELLQEYDSN [K19L] yielded an abundance fitness of 0.127 ± 0.031. Work on GRPPQPKSVEDLLDRINLDEHMPTFLFNGYEDLDTFKLLEEEDLDELNIRDPEHRAVLLTAVELLQEYDSN [K19D] yielded an abundance fitness of -0.643 ± 0.079. GRPPQPKSVEDLLDRINLNEHMPTFLFNGYEDLDTFKLLEEEDLDELNIRDPEHRAVLLTAVELLQEYDSN [K19N] gave an abundance fitness of -0.211 ± 0.047. In the case of GRPPQPKSVEDLLDRINLMEHMPTFLFNGYEDLDTFKLLEEEDLDELNIRDPEHRAVLLTAVELLQEYDSN [K19M], the abundance fitness is reported as -0.058 ± 0.043. With GRPPQPKSVEDLLDRINLVEHMPTFLFNGYEDLDTFKLLEEEDLDELNIRDPEHRAVLLTAVELLQEYDSN [K19V] the abundance fitness was -0.293 ± 0.042. Variant GRPPQPKSVEDLLDRINLKEHHPTFLFNGYEDLDTFKLLEEEDLDELNIRDPEHRAVLLTAVELLQEYDSN [M22H] has an abundance fitness of -0.313 ± 0.049. GRPPQPKSVEDLLDRINLKEHRPTFLFNGYEDLDTFKLLEEEDLDELNIRDPEHRAVLLTAVELLQEYDSN [M22R] showed an abundance fitness of -0.612 ± 0.046.
